# Laboratory results taken from patent US20040127421.
# Experiments:
# [1] = test system: 9-mer (SEQ ID NO:12) PRCGNPDVA
# [2] = test system: 10-mer (SEQ ID NO:13) NYNFFPRKPK
# [3] = test system: 19-mer (SEQ ID NO:11) PRCGNPDVANYNFFPRKPK
# Sequence of Active MMP-9 enzyme (chain, as listed by the source): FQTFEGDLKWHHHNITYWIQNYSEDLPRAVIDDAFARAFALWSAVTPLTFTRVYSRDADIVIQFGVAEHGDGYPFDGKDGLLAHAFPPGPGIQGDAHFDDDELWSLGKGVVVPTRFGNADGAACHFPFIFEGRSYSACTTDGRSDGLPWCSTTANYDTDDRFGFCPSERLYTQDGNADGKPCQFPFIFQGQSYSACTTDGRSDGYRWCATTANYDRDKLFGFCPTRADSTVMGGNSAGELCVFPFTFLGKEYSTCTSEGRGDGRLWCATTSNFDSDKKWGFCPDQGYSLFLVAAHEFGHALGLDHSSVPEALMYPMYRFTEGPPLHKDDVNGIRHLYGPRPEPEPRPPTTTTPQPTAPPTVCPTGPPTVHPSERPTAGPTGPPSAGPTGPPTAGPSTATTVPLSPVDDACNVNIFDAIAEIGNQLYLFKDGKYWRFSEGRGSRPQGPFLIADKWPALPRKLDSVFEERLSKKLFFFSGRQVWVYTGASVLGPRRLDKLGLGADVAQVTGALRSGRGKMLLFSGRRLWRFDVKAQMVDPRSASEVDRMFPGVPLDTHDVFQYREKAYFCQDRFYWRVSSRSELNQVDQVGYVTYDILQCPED
substance,measurement,setting,value
Active MMP-9 enzyme,extended time course of MMP-9 catalyzed hydrolysis of collagen,[1],The 10-mer is less effective at preventing the destruction of collagen at long time points (FIG. 9) than is the 9-mer (FIG. 10)
same,extended time course of MMP-9 catalyzed hydrolysis of collagen,[2],The 10-mer is less effective at preventing the destruction of collagen at long time points (FIG. 9) than is the 9-mer (FIG. 10)
same,extended time course of MMP-9 catalyzed hydrolysis of collagen,[3],the 19-mer effectively inhibits the MMP-9 catalyzed hydrolysis of collagen to beyond 1000 minutes
